Changes are numbered by the printed parent chain. Numbers in names are those of the source.
B1: 20E6_H0.2aL1_hIgG1 VH_D52A (antibody, V domains shown)
VH: EVQLVQSGAEVKKPGASVKVSCKASGYTFTSYWMHWVRQAPGQGLEWMGRIAPQSGGIKYAQKFQGRATLTVDTSTSTAYMELSRLRSDDTAVYYCARWDYGGYFDVWGQGTLVTVSS
VL: DIQMTQSPSSLSASVGDRVTITCRASQDITNYLNWYQQKPGKAVKLLIYYTSRLHSGVPSRFSGSGSGTDYTLTISSLQPEDFATYFCQQGDTLPWTFGQGTKLEIKR
B2: 20E6_H0.2aL1_hIgG1 VH_I58A (antibody, V domains shown)
VH: B1 VH with A52D, I58A
VL: B1 VL
B3: 20E6_H0.2aL1_hIgG1 VH_Y32A (antibody, V domains shown)
VH: B1 VH with Y32A, A52D
VL: B1 VL
B4: 20E6_H0.2aL1_hIgG1 VH_Q54A (antibody, V domains shown)
VH: B1 VH with A52D, Q54A
VL: B1 VL
B5: 20E6_H0.2aL1_hIgG1 VL_N31A (antibody, V domains shown)
VH: B1 VH with A52D
VL: B1 VL with N31A
B6: 20E6_H0.2aL1_hIgG1 VL_T51A (antibody, V domains shown)
VH: B1 VH with A52D
VL: B1 VL with T51A
B7: 20E6_H0.2aL1_hIgG1 VH_W33A (antibody, V domains shown)
VH: B1 VH with W33A, A52D
VL: B1 VL
B8: 20E6_H0.2aL1_hIgG1 VH_V107A (antibody, V domains shown)
VH: B1 VH with A52D, V107A
VL: B1 VL
B9: 20E6_H0.2aL1_hIgG1 VH_G26A (antibody, V domains shown)
VH: B1 VH with G26A, A52D
VL: B1 VL
B10: 20E6_H0.2aL1_hIgG1 VH_P53A (antibody, V domains shown)
VH: B1 VH with A52D, P53A
VL: B1 VL
B11: 20E6_H0.2aL1_hIgG1 VL_L54A (antibody, V domains shown)
VH: B1 VH with A52D
VL: B1 VL with L54A
B12: 20E6_H0.2aL1_hIgG1 VL_T30A (antibody, V domains shown)
VH: B1 VH with A52D
VL: B1 VL with T30A
B13: 20E6_H0.2aL1_hIgG1 VH_S31A (antibody, V domains shown)
VH: B1 VH with S31A, A52D
VL: B1 VL
B14: 20E6_H0.2aL1_hIgG1 VH_Y27A (antibody, V domains shown)
VH: B1 VH with Y27A, A52D
VL: B1 VL
B15: 20E6_H0.2aL1_hIgG1 VL_R53A (antibody, V domains shown)
VH: B1 VH with A52D
VL: B1 VL with R53A
B16: 20E6_H0.2aL1_hIgG1 VH_T30A (antibody, V domains shown)
VH: B1 VH with T30A, A52D
VL: B1 VL
B17: 20E6_H0.2aL1_hIgG1 VH_K59A (antibody, V domains shown)
VH: B1 VH with A52D, K59A
VL: B1 VL
B18: 20E6_H0.2aL1_hIgG1 VH_I51A (antibody, V domains shown)
VH: B1 VH with I51A, A52D
VL: B1 VL
B19: 20E6_H0.2aL1_hIgG1 VL_T93A (antibody, V domains shown)
VH: B1 VH with A52D
VL: B1 VL with T93A
B20: 20E6_H0.2aL1_hIgG1 VH_G56A (antibody, V domains shown)
VH: B1 VH with A52D, G56A
VL: B1 VL
B21: 20E6_H0.2aL1_hIgG1 VL_H55A (antibody, V domains shown)
VH: B1 VH with A52D
VL: B1 VL with H55A
B22: 20E6_H0.2aL1_hIgG1 VH_S55A (antibody, V domains shown)
VH: B1 VH with A52D, S55A
VL: B1 VL
B23: 20E6_H0.2aL1_hIgG1 VL_R24A (antibody, V domains shown)
VH: B1 VH with A52D
VL: B1 VL with R24A
B24: 20E6_H0.2aL1_hIgG1 VH_D100A (antibody, V domains shown)
VH: B1 VH with A52D, D100A
VL: B1 VL
B25: 20E6_H0.2aL1_hIgG1 VL_I29A (antibody, V domains shown)
VH: B1 VH with A52D
VL: B1 VL with I29A
B26: 20E6_H0.2aL1_hIgG1 VH_D106A (antibody, V domains shown)
VH: B1 VH with A52D, D106A
VL: B1 VL
B27: 20E6_H0.2aL1_hIgG1 VL_Q89A (antibody, V domains shown)
VH: B1 VH with A52D
VL: B1 VL with Q89A
B28: 20E6_H0.2aL1_hIgG1 VH_M34A (antibody, V domains shown)
VH: B1 VH with M34A, A52D
VL: B1 VL
B29: 20E6_H0.2aL1_hIgG1 VL_S52A (antibody, V domains shown)
VH: B1 VH with A52D
VL: B1 VL with S52A
B30: 20E6_H0.2aL1_hIgG1 VH_G57A (antibody, V domains shown)
VH: B1 VH with A52D, G57A
VL: B1 VL
B31: 20E6_H0.2aL1_hIgG1 VH_F29A (antibody, V domains shown)
VH: B1 VH with F29A, A52D
VL: B1 VL
B32: 20E6_H0.2aL1_hIgG1 VH_T28A (antibody, V domains shown)
VH: B1 VH with T28A, A52D
VL: B1 VL
B33: 20E6_H0.2aL1_hIgG1 VH_H35A (antibody, V domains shown)
VH: B1 VH with H35A, A52D
VL: B1 VL
B34: L48V_F87Y (antibody, human IgG1, kappa, V domains shown)
VH: EVQLVESGGGLVQPGGSLRLSCAASGFTFTDYYMSWVRQAPGKGLEWVGFIRNKPNGYTTEYSASVKGRFTISRDNSQSSLYLQMNSLKTEDTAVYYCARYTGGGYFDYWGQGTLLTVSS
VL: B1 VL with V19L, T22S, T30S, A43T, F83V, F87Y
notes: also called 28G11_H2L3 with HC L48V and LC F87Y
B35: N73D_F87Y (antibody, human IgG1, kappa, V domains shown)
VH: B34 VH with V48L, N76D
VL: B1 VL with V19L, T22S, T30S, A43T, F83V, F87Y
notes: label to be rechecked; also called 28G11_H2L3 with HC N73D and LC F87Y
B36: L109V_T43V (antibody, human IgG1, kappa, V domains shown)
VH: B34 VH with V48L, L116V
VL: B1 VL with V19L, T22S, T30S, A43V, F83V
notes: also called 28G11_H2L3 with HC L109V and LC T43V
B37: N73D_V44P (antibody, human IgG1, kappa, V domains shown)
VH: B34 VH with V48L, N76D
VL: B1 VL with V19L, T22S, T30S, A43T, V44P, F83V
notes: also called 28G11_H2L3 with HC N73D and LC V44P
B38: L48V_V44P (antibody, human IgG1, kappa, V domains shown)
VH: B34 VH
VL: B1 VL with V19L, T22S, T30S, A43T, V44P, F83V
notes: also called 28G11_H2L3 with HC L48V and LC V44P
B39: L109V_F87Y (antibody, human IgG1, kappa, V domains shown)
VH: B34 VH with V48L, L116V
VL: B1 VL with V19L, T22S, T30S, A43T, F83V, F87Y
notes: also called 28G11_H2L3 with HC L109V and LC F87Y
B40: L48V_WT (antibody, human IgG1, kappa, V domains shown)
VH: B34 VH
VL: B1 VL with V19L, T22S, T30S, A43T, F83V
notes: also called 28G11_H2L3 with HC L48V
B41: N73D_Y71F (antibody, human IgG1, kappa, V domains shown)
VH: B34 VH with V48L, N76D
VL: B1 VL with V19L, T22S, T30S, A43T, Y71F, F83V
notes: also called 28G11_H2L3 with HC N73D and LC Y71F

The binders below were run against biotinylated human LAP-TGFβ1 (Example 14) (human, UniProt P01137 30-390, biotinylated, sites not stated) (assay: BLI, antigen on tip, CHO supernatant; ratio to wild type).
Description: A total of 49 single alanine substitutions were made in the heavy and light chain CDRs of the antibody to identify critical residues for human LAP-TGFβ1 binding. In addition, residue A25 in the light chain was substituted with glycine. Plasmid DNA for these variants was transfected into ExpiCHO cells in 1 mL cultures on 24-well plates, along with wells containing no DNA (negative control) and wells transfected with DNA for the wild-type antibody (positive control). IgG concentrations in each well were determined by binding to Protein A-functionalized tips. Tips were dipped into wells containing the supernatants from each culture. IgG concentrations were determined by comparing the rate of signal change for each well against the rate of signal change for a standard curve of purified 20E6_H0.2aL1_hIgG1 antibody diluted into ExpiCHO media. CHO supernatants were diluted to 0.6 μg/mL in media. A streptavidin-functionalized tip was equilibrated in binding buffer (10 mM sodium phosphate, 150 mM sodium chloride, 1% (w/v) bovine serum albumin, 0.05% (w/v) sodium azide, pH 7.4) and then dipped in a 5 μg/mL solution of biotinylated human LAP-TGFβ1 in binding buffer for 60 seconds to load the tip with antigen. The antigen-loaded tip was then washed in binding buffer and placed in the diluted CHO supernatant. The antigen was allowed to bind to antibody for 5 minutes (association phase), and then the tip was moved to binding buffer (dissociation phase). The association and dissociation phases were fit to a 1:1 binding model to determine binding rate constants.

Sequence of biotinylated human LAP-TGFβ1 (Example 14) (P01137 30-390 limits assumed): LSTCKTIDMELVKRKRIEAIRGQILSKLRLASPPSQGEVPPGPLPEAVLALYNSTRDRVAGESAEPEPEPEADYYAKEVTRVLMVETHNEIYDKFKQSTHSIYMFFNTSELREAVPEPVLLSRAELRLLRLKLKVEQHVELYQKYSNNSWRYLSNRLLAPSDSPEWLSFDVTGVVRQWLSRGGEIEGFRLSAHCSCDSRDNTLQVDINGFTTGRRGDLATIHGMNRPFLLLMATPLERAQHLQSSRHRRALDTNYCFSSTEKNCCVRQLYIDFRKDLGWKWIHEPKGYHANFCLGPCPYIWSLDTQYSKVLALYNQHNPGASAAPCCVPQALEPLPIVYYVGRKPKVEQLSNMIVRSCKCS

Binder	KD,WT/KD,Ala
B1	0.71
B2	0.52
B3	1
B4	0.67
B5	0.48
B6	0.8
B7	0.12
B8	1.08
B9	1.4
B10	0.87
B11	0.1
B12	1
B13	0.6
B14	1.29
B15	0.02
B16	0.94
B17	0.69

Binder	KD,WT/KD,Ala
B18	0.73
B19	0.64
B20	1.62
B21	0.33
B22	0.96
B23	0.01
B24	0.28
B25	0.02
B26	0.24
B27	0.01
B28	0.84
B29	0.12
B30	0.37
B31	1.16
B32	0.97
B33	2.07

These binders were tested against T1, human LAP-TGFβ1 overexpressed on cells (human, UniProt P01137 30-390) (assay: flow cytometry; black bar HT1080-huB1, grey bar HT1080).
T1 construct: HT1080 or P3U1 cells overexpressing wild-type human LAP-TGFβ1; also called HT1080-huB1; HT1080-hβ1
T1 sequence (P01137 30-390): as the sequence (P01137 30-390 limits assumed) above

Binder	binding result
B34	binds
B35	no binding
B36	binds
B37	no binding
B38	binds
B39	binds
B40	binds
B41	no binding

Source: US20220017612A1 (TILOS THERAPEUTICS, published 2022)
